# T1: pan-neurotrophin receptor p75^NTR (UniProt P08138 29-427, limits assumed)
# T1 construct: whole, on cells
# T1 sequence (looked up): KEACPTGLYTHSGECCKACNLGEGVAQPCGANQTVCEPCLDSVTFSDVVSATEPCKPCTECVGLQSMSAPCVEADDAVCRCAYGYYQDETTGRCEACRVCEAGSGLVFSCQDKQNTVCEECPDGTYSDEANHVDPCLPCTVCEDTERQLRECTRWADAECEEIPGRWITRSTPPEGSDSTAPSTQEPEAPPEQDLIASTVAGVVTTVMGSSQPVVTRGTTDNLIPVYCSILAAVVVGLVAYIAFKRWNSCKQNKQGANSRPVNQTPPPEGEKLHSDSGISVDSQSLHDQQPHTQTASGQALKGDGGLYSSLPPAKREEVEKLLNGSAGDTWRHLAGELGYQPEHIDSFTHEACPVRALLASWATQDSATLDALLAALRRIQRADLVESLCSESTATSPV
# B1: Humanised 1G11 (H7, Lo1) (antibody, human IgG1, kappa)
# heavy: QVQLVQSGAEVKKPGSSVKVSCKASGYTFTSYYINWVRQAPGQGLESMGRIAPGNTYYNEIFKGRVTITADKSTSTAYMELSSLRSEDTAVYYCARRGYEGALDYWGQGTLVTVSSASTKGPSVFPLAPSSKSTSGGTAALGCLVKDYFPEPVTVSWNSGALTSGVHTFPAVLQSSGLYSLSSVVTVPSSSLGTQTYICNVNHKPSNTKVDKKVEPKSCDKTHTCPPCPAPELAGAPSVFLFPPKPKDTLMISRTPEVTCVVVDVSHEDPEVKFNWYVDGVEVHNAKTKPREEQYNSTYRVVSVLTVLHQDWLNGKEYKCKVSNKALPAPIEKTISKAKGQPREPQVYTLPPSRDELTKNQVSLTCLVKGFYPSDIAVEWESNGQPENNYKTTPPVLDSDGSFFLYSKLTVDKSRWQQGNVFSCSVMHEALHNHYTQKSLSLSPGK
# light: EIVLTQSPATLSLSPGERATLSCRASQRISNNLHWYQQKPGQAPRLLIKYVSQSISGIPARFSGSGSGTDFTLTISSLEPEDFAVYYCQQSNSWPLTFGQGTKLEIKRTVAAPSVFIFPPSDEQLKSGTASVVCLLNNFYPREAKVQWKVDNALQSGNSQESVTEQDSKDSTYSLSSTLTLSKADYEKHKVYACEVTHQGLSSPVTKSFNRGEC
# notes: Straight graft with serine at Kabat position 47 of VH; human IgG1 Fc with L235A and G237A (EU), Fc-disabled
# B2: 3A3 (murine TrkB agonist monoclonal antibody) (antibody, mouse IgG1, kappa, V domains shown)
# VH: QVQLQQSGAELAKPGASVKMSCKASGYTFSSYWMHWVKQRPGQGLEWIGYINPSTGYTDYNQKFKDKATLTADKSSNTAYMQLSSLTSDDSAVYYCARSRAARYWGQGTTLTVSS
# VL: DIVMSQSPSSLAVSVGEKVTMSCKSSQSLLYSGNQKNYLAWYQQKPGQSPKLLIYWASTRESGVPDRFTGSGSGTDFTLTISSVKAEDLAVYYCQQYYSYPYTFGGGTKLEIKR
# notes: Full length murine chains; also called 3B3; 3A3 (=3B3)
# B3: 1G11 (murine TrkB agonist monoclonal antibody) (antibody, V domains shown)
# VH: QVQLQQSGDDLVKPGASVKLSCKASGYTFTSYYINWIKQRPGQGLECIGRIAPGNTYYNEIFKGKAILTVDTSSSTAYIQLSSLSSEDSGVYFCARRGYEGALDYWGQGTSVTVSS
# VL: DIVLTQSPATLSVTPGDSVSLSCRASQRISNNLHWYQQKSHESPRLLIKYVSQSISGIPSRFSGSGSGTDFTLSINSVETEDFGMYFCQQSNSWPLTFGAGTKLELKR
# notes: Full length murine heavy and light chains; from a hybridoma of Balb/c mice immunised with human TrkB-ECD; Not Fc-disabled; also called 1G11 mAb; murine 1G11
# B4: 5D11 (murine TrkB agonist monoclonal antibody) (antibody, mouse IgG1, kappa, V domains shown)
# VH: QVHLQQSGAELVRPGTSVKVSCKASGYAFTNYLIEWIKQRPGQGLEWIGVINPGSGGTNYNDKFKGKAILTADKSSTTAYMQLSSLTSDDSAVYFCARGGNDYGDYWGQGTSVTVSS
# VL: DIVLTQSPASLAVSLGQRATISCRASQSVSTSFYSYMHWYQQKPGQPPKVFIKYASNLQSGVPARFSGSGSGTDFTLNIHPVEEDDTATYYCQHSWEIPWTFGGGTKLEIKR
# notes: Full length murine chains; same as 3E10; also called 3E10; 5D11 (=3E10)
# B5: Brain Derived Neurotrophic Factor (BDNF) (ligand, UniProt P23560 129-247, looked up)
# chain: HSDPARRGELSVCDSISEWVTAADKKTAVDMSGGTVTVLEKVPVSKGQLKQYFYETKCNPMGYTKEGCRGIDKRHWNSQCRTTQSYVRALTMDSKKRIGWRFIRIDTSCVCTLTIKRGR
# notes: also called BNDF
# B6: 8E5 (murine TrkB agonist monoclonal antibody) (antibody, mouse IgG1, kappa, V domains shown)
# VH: EVQLVESGGDLVKPGGSLKLSCAASGFTFSTYGMSWVRQTPDKGLEWVATVSTGGTYTYYPDSVKGRFTISRDNAKNTLYLQMSSLKSEDTAMYYCARGGYSFAYWGQGTLVTVSA
# VL: ENVLTQSPAIMSASPGEKVTMTCRASSSVSSSYLHWYQQKSGVSPKLWIYSTSNLASGVPARFSGSGSGTSYSLTISSVEAEDAATYYCQQYSGYPLTFGAGTKLELKR
# notes: Full length murine chains
# Legend:
# [1] = biological target: T2, recombinant human TrkB extracellular domain (FLAG tag-GSA-C32-H430-His5) (human, UniProt Q16620 31-430); assay: SPR, 1:1 binding mode, recombinant human TrkB-ECD
# T2 construct: Single alanine mutants were made in this ECD; also called TrkB-ECD; TrkB ECD; not shown: FLAG tag
# T2 sequence (Q16620 other isoform, or with tags, fused parts or gaps): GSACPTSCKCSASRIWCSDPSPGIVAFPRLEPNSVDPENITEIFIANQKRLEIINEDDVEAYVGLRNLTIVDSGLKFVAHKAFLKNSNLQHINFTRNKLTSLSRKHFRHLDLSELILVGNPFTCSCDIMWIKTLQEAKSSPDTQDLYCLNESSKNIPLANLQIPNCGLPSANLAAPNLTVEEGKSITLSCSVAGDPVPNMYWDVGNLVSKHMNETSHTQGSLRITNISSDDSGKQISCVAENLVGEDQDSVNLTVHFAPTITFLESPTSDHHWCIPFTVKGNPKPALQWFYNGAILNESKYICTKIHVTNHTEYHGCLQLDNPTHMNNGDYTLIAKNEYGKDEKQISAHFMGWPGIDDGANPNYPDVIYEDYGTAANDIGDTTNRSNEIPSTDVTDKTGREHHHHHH
# [2] = biological target: T3, human full-length TrkB receptor (human, UniProt Q16620 32-822); assay: cell-based or functional assay
# T3 sequence (Q16620 32-822 limits assumed): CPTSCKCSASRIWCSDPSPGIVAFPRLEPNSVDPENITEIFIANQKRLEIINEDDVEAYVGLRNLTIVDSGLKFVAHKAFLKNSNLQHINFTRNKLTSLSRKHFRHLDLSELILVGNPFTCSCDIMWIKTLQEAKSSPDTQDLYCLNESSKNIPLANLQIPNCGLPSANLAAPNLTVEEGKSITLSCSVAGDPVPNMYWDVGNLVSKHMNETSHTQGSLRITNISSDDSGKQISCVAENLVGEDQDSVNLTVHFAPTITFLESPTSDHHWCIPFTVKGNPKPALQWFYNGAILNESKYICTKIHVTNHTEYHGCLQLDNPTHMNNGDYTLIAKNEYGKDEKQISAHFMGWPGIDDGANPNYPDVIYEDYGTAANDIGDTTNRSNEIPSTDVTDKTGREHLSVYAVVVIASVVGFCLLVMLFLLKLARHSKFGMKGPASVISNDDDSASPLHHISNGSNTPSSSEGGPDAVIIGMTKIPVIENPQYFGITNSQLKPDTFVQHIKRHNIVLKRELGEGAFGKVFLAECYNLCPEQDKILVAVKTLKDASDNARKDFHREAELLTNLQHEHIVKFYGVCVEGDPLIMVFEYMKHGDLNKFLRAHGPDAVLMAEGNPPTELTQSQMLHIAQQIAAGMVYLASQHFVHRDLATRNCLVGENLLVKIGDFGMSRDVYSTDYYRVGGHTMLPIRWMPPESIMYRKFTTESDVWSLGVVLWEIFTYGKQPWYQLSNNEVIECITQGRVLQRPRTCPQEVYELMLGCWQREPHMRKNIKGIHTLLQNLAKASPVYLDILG
# [3] = biological target: T4, recombinant cynomolgus TrkB-ECD (cynomolgus, UniProt A0A2K5VS06 32-430); assay: SPR, 1:1 binding mode, recombinant cynomolgus TrkB-ECD
# T4 construct: extracellular domain
# human FcRn = human FcRn (human, UniProt P55899 24-297; P61769 21-119, limits assumed); assay: SPR
# human FcRn, sequence (P55899 24-297 limits assumed, chain 1 of 2): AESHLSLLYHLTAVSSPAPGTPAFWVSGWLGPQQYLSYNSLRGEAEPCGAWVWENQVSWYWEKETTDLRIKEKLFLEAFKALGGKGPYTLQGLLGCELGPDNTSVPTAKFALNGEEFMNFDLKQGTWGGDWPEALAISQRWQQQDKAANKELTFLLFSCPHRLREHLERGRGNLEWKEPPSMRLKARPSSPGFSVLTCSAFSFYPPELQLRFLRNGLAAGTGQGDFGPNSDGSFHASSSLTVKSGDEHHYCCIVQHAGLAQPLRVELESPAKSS
# human FcRn, sequence (P61769 21-119 limits assumed, chain 2 of 2): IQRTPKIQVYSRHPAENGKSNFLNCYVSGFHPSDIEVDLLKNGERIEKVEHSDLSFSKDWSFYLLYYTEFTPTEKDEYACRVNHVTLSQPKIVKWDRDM
# [4] = biological target: T3, human full-length TrkB receptor; assay: cell-based or functional assay; remark: listed apart in the source
# [5] = biological target: T2, recombinant human TrkB extracellular …; assay: SPR, human TrkB-ECD
# [6] = biological target: T3, human full-length TrkB receptor; assay: cell-based or functional assay; remark: listed apart in the source
# [7] = biological target: TrkB D1-D3 domain variant (C32-L196) (human, UniProt Q16620 32-196); assay: SPR with TrkB domain deletion variants
# TrkB D1-D3 domain variant (C32-L196), sequence (Q16620 32-196 limits assumed, stated change not applied): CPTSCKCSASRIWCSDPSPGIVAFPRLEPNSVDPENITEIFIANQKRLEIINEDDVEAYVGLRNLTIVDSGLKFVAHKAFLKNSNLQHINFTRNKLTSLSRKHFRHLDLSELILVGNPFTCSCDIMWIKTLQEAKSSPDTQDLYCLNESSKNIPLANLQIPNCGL
# [8] = biological target: T1, pan-neurotrophin receptor p75^NTR; assay: cell based binding assay
# rat TrkB receptor = biological target: T5, rat TrkB receptor (rat, UniProt Q63604 32-821); assay: recombinant TrkB in a heterologous cell line, primary cells or human iPSC derived cells
# T5 construct: whole, on cells; also called rodent TrkB
# T5 sequence (Q63604 32-821): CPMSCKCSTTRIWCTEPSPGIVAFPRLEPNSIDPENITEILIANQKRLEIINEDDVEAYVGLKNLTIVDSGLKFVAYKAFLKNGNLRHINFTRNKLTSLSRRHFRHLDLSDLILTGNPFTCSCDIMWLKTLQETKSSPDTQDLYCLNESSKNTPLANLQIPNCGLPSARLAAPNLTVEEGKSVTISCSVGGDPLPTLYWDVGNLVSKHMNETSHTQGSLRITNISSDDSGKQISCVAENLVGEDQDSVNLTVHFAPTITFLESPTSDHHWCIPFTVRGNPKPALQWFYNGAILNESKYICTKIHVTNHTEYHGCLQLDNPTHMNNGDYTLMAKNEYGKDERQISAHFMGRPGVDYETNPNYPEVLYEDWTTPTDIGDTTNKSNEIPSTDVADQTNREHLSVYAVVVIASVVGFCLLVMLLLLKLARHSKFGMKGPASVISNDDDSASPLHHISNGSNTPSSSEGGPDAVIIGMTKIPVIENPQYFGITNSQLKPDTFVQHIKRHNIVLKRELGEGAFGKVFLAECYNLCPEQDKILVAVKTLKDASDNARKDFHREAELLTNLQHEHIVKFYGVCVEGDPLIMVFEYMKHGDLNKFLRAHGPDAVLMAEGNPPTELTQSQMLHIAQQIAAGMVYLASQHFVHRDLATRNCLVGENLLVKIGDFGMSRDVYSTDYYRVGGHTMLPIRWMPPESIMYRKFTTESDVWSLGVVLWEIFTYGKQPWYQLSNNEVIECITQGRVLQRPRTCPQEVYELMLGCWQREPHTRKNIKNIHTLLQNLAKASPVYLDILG
# murine TrkB receptor = biological target: T6, murine TrkB receptor (murine, UniProt P15209 32-821); assay: as above
# T6 construct: whole, on cells; also called mouse TrkB; rodent TrkB
# T6 sequence (P15209 32-821): as the sequence (Q63604 32-821) above, with M3T, T9S, T10A, I32V, K63R, G84S, T153M, I185L, T394S, N770S counted along it
# TrkB_H284-H430 ECD-6H = biological target: T7, TrkB_H284-H430 ECD-6H (human, UniProt Q16620 284-430); assay: SEC-MALS
# T7 construct: the SEC-MALS construct is named only by its residue limits and tag; also called soluble truncated form of the ECD of TrkB
# T7 sequence (Q16620 other isoform, or with tags, fused parts or gaps limits assumed): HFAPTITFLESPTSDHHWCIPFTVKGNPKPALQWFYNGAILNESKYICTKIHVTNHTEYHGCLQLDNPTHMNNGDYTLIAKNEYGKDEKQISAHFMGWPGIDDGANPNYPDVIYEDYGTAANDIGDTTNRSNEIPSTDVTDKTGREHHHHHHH
Binder,"cell survival, rat PC12 cells stably expressing human full length TrkB, EC50 [2]","neurite outgrowth, rat PC12 cells stably expressing human full length TrkB, EC50 [2]","cell survival, EC50 [2]","Activation of TrkB (pTrkB), EC50 [4]","Potentiation of BDNF-induced agonism of TrkB (pTrkB, BDNF alone = 100%) [4]",Kd [5],koff [5],kon [5],"EC50 (read off the curve), potentiation of pTrkB in the presence of 10 nM BDNF [6]",also measured
B1,0.007 nM,0.07 nM,,,,,,,,"Kd [1]: ~55 nM; Activation of TrkB (pTrkB), EC50, CHO-K1 cells [2]: 0.65 nM; Kd [3]: ~60 nM; binding result (human FcRn): binds"
B2,,,0.006 nM,0.2 to 0.6 nM,~160%,~7.5 nM,0.000897 s⁻¹,120000 M⁻¹ s⁻¹,~0.7 nM,
B3,0.025 nM,0.19 nM,,,~130%,~42 nM,0.00239 s⁻¹,56600 M⁻¹ s⁻¹,~10 nM,"binding result [7]: no binding; Activation of TrkB (pTrkB, Y515), EC50, CHO-K1 cells [4]: 3.1 nM; binding result [8]: no binding; binding result (rat TrkB receptor): binds; binding result (murine TrkB receptor): binds"
B4,,,,1 to 2 nM,,~3.3 nM,0.000145 s⁻¹,44100 M⁻¹ s⁻¹,,
B5,,,,,,,,,,binding result (TrkB_H284-H430 ECD-6H): binds
B6,,,0.09 nM,~15 nM,~120%,~9.8 nM,0.000676 s⁻¹,69000 M⁻¹ s⁻¹,,"neurite outgrowth, EC50 [2]: 1.58 nM"

# Source: patent US9914781 (GlaxoSmithKline, dated 2018)
